{"source": "patent US20100093090A1", "about": "“METHOD AND KIT FOR EFFICIENT REPROGRAMMING OF SOMATIC CELLS” (priority 2008, published 2010)", "key": {"[1]": {"system": "iPS cell generation efficiency", "experiment": "iPS cell generation in presence of HDAC inhibitors (VPA, SBHA, Butyrate)", "assay_type": "cell-based", "method": "FIG. 10. The colony number shown are those induced from 10^4 cells plated on the feeder cells by different combinations of factors. IPS colony numbers were counted on day 25 post-transduction. (O: OCT4; S:SOX2; K: KLF4; G: GFP; P: P53siRNA; U: UTF1). (A) In presence of VPA, iPS cell generation efficiency could be enhanced by UTF1 or P53 siRNA, or their combination. […] VS: VPA+SBHA; VB: VPA+Butyrate. The working concentrations of VPA, SBHA and Butyrate in this study were 0.5 mM, 2 μM, 0.1 mM, respectively.\nRecently, it is reported that iPS cells could be generated when contacting with HDAC inhibitors (and/or other compounds) by a much higher efficiency. We further tested whether UTF1 and p53 siRNA would still work in the context of HDAC inhibitors."}, "[2]": {"system": "human adult foreskin fibroblast (hAFF) cells", "experiment": "Human iPS cell generation from fibroblasts by lentiviral transduction of reprogramming factors (colony counting, AP staining, GFP silencing)", "assay_type": "cell-based", "experimental": "5×10^4 cells were plated onto a 10-cm dish. Shown are numbers of total colonies and AP-highly positive colonies (in parenthesis) counted on day 18 post-transduction. “4” indicates the reported four reprogramming factors OCT4 (O), SOX2 (S), KLF4 (K) and c-MYC (M). […] (C-E): Total colony numbers (left panels), highly AP-positive colony numbers (middle panels) and iPS colony numbers (right panels). The colony number shown are those induced from 10^5 cells plated on the feeder cells by different combinations of factors. The results of three independent experiments are shown with different colors. […] Numbers were counted on day 25 post-transduction; (D) The six factors (4PU) combination minus the reported four reprogramming factors, respectively. (Da and Db) Numbers were counted on day 25 post-transduction. (Dc) Numbers were counted on day 35 post-transduction. […] Numbers were counted on day 35 post-transduction.\nLentiviral vector containing OCT4, SOX2, c-MYC, KLF4, UTF1, p53 siRNA and control p53 siRNA respectively (15 μg) together with pMDLg/pRRE, RSV/Rev and VSV-G (FIG. 13 A, B, C) (5 μg for each), were respectively transfected into 293T cells with the Ca3(PO4)2-method in 10-cm dishes and incubated overnight. 12 hours later, the medium was changed and virus was collected after subsequent 36 hours cultivation. Viral supernatant was collected and filtered through 0.45 μm filters (Millipore) and then placed onto target fibroblasts supplemented with 10 ng/μl polybrene (Sigma-Aldrich). Typically, 1×10^5 fibroblasts in a well of 6-well plate were infected with 250 μl viral supernatant of each gene. The viral supernatant was changed with fibroblast culture medium after 12 hours. […] 5-6 days later, the infected cells were collected, counted, and plated onto MEF feeders (typically 2×10^4 to 1×10^5 cells for a 10-cm dish). […] The efficiency to generate iPS cells was calculated according to Takahashi's method, by which the number of cell colonies was counted and divided by the number of cells plated onto feeders (Takahashi et. al., 2007) (FIGS. 1C, 1D, 1E, 5C, and 5D). […]"}, "p53": {"system": "p53", "sequence (P04637 whole entry)": "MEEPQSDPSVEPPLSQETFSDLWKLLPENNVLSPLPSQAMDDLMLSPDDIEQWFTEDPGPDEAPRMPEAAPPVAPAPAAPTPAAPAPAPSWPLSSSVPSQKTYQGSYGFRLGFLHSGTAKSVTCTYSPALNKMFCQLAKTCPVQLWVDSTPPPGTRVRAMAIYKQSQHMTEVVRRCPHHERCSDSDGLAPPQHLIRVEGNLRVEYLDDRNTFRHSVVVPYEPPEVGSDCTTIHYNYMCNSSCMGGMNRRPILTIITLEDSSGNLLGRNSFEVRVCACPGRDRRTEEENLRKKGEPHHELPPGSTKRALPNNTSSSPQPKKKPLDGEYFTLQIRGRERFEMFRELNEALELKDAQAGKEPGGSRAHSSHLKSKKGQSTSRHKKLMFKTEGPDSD", "experiment": "Knockdown of p53 expression by p53 shRNA in hAFF", "assay_type": "cell-based, human", "conditions": "nonsense siRNA as control"}, "[3]": {"conditions": "with the four factors, day 25 post-transduction"}}, "data": [{"molecule": "p53 siRNA: lentiviral pLL3.7-encoded shRNA against p53; DNA sequence encoding it GACTCCAGTGGTAATCTACT (SEQ ID NO: 6 and 7) (nucleic acid) DNA 1: TGACTCCAGTGGTAATCTACTTCAAGAGAGTAGATTACCACTGGAGTCTTTTTTC DNA 2: TCGAGAAAAAAGACTCCAGTGGTAATCTACTCTCTTGAAGTAGATTACCACTGGAGTCA", "values": [{"measurement": "reprogramming efficiency when VPA was added", "setting": "[1]; VPA 0.5 mM, 10^4 cells plated, day 25 post-transduction", "value": "enhance the reprogramming efficiency significantly"}, {"measurement": "reprogramming efficiency in presence of two HDAC inhibitor combination", "setting": "[1]; VPA+SBHA or VPA+Butyrate, 0.5 mM, 2 μM, 0.1 mM, day 25", "value": "enhances reprogramming efficiency"}, {"measurement": "iPS cells obtained out of every 100,000 human adult fibroblast cells after infection", "setting": "[2]; together with Oct4, Sox2 and Klf4, without c-Myc, about 1 month post-infection, on average", "value": "about 30"}, {"measurement": "highly AP-positive colony numbers and iPS colony numbers", "setting": "[2]; [3]", "value": "did not further exert its effect"}, {"measurement": "total numbers of cell colonies", "setting": "[2]; [3]", "value": "dramatically enhanced"}, {"measurement": "knockdown of p53 expression", "setting": "p53", "value": "efficient"}]}]}
